Laboratory results: the supplement of paper PMC10567573

B1: PKD2L1 (parent)
chain: SGPEAARAGGWVSGEEFYMLTRRV
B2: SMTNL2 (parent)
chain: QKNFELAFTMAENLANCERLIEVE

Variants of: B1
Test: protein stability index of a GFP-peptide fusion (GPS, HEK-293T) (PSI 1-6); higher = more stable
Settings: c terminus: a fixed tail appended
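Further: lentivirally expressed fusions sorted by FACS into six bins by GFP to DsRed ratio, PSI derived from sequencing read proportions per bin multiplied by bin number.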

Protein stability index, by site and new letter:
S1: N 2.65, V 2.67, M 2.04
P3: R 1.78, H 2.32, F 1.83, M 2.2, Q 2.44
W11: K 2.21, P 3.19, T 3.09, Y 2.75, R 3.19
G14: S 2.6, K 2.52, H 2.4, F 1.76, L 2.04, T 3
A6: C 2.31, L 3.07, W 1.06, T 2.86, K 2.12, D 2.35, H 2.24, Y 2.4, P 2.21
M19: S 3.43, Q 3.38, A 2.13, E 3.69, C 2.82, Y 2.39, K 3.1, D 3.5, L 3.28
T21: N 2.9, M 2.67, G 3.08, S 2.62, C 2.29, W 2.12, Y 1.6
R22: W 1.72
F17: V 2.5, A 4.1, D 4.59, Q 4.05, M 3.27, W 2.14, C 3.03
G10: V 1.72, T 2.73, Q 2.91
E16: M 2.7, F 2.75, T 2.26, K 2.5, V 1.64, W 2.42, P 1.78, H 1.64
R23: H 2.05, P 2.62, N 2.5, G 2.93, S 2.97
E4: P 2.08, I 2.02, V 1.56, K 1.94, F 1.71, Q 1.57
G2: E 3.1, W 2.91, D 2.24, K 1.8, C 1.67
A8: K 2.13, T 2.24, V 2.25
G9: M 1.97, D 2.5, Q 2.51, F 2.06, T 1.92, C 1.59
V24: G 2.48, W 2.14, F 1.71
S13: Y 2.07, N 2.26, G 2.19, M 2.14, R 2.84
E15: M 1.48, Y 1.65, G 2.2, S 2.1
Y18: T 3.52, I 2.32, C 3.05, V 2.89, S 3.4
V12: K 2.47, L 2.6, A 2.51, Y 1.96
A5: C 1.98, H 2.03, T 1.82, S 1.96, W 2.06, I 2.33, F 2.24, E 2.32, Y 2.18
L20: H 2.69, V 2.25, R 3.79, E 3.64, P 3.94, Y 2.74, S 3.61, A 3.16, I 2.01
R7: E 2.75, M 2.64, S 2.42, N 2.44, F 2.9

Variants of: B2
Test: as above
Settings: c terminus: a fixed tail appended

Protein stability index, by site and new letter:
V23: I 1.78, A 2.18, R 2.21, E 2.93, P 2.98, N 1.69, H 2.73, S 2.25, D 1.77, L 2.34, F 2.36, M 4.25, G 2.04, W 1.63, K 1.66, T 3.11, C 2.21, Q 1.3, Y 3.99
N16: W 3.51, F 1.36, E 2.89, P 2.8, Q 2.33, M 1.34, L 2.73, Y 2.33, V 2.61, I 2.83, C 1.85, R 1.44, K 3.84
A15: L 1.52, Y 1.84, P 2.93, S 1.46, V 2.83, D 3.49, I 1.87, Q 1.42, H 2.1, M 1.92, F 1.45, C 2.46, N 2.04, E 3.11, R 1.38, G 2.67, T 1.32
E12: V 3.63, T 1.86, W 3.4
E22: H 1.88, I 2.9, P 2.82, A 3.4, T 3.65, D 1.72, K 2.71, G 1.55, M 2.94, C 2.79, N 1.68
C17: T 1.39, K 3.5, A 2.16, D 3.98, F 2.14, I 2.14, P 4.29, H 3.37, Q 2.79, M 2.83, G 2.98, Y 2.78, R 3.51, V 2.02, S 2.28, N 4.09
L14: K 3.8, C 3.14, N 2.72, D 4.44, F 3.11, E 4.23, I 2.89, P 3.89, A 3.7, M 2.02, S 3.69, R 3.92, H 3.53, V 3.19, Y 3.37, T 3.79, Q 3.98, W 2.26
E24: R 2.4, A 2.84, K 2.22, D 1.62, C 1.42, Y 2.13, V 1.45, N 2.11, T 1.95, S 1.36, M 1.89, I 1.03, P 2.15, Q 1.33, G 2.13, L 1.56, H 1.6, F 3.44
R19: G 2.92, W 3.89, L 1.55, N 3.03, F 2.86, T 2.61, A 1.84, V 1.27, Q 1.9, S 2.55, P 3.57, C 1.83, K 1.52, I 2.57, H 1.97, M 2.86, E 3.33
E18: G 1.84, I 4.4, R 1.85, K 2.04, N 2.22, Q 1.97, P 2.6, V 1, Y 3.75, S 2.65, T 2.18, H 2.64, M 2.73, D 2.98, C 2.68, L 1.59, A 2.09
N13: C 2.69, Y 2.99, I 2.98, P 3.63, E 2.21, W 2, G 2.19, H 1.41, Q 1.68, L 1.98, S 2.33, R 1.67, K 1.95, F 2.82, T 1.8, V 1.33
L20: W 1.38, S 3.52, N 4.06, H 2.69, G 2.97, P 3.58, D 4.42, V 1.27, K 2.46, A 2.55, M 1.35, Y 2.08, Q 1.61, T 2.25, R 2.12, F 2.15, E 2.92, C 2.1, I 2.31
I21: E 4.62, F 2.29, Y 2.99, T 4.29, P 4.14, M 2.61, W 3.67, S 4.54, R 2.44, G 3.85, H 3.17, Q 3.72, N 3.95, A 3.25, D 4.39, C 3.27, K 3.46, V 2.96
